Experimental findings from the RNAGym collection of RNA variant scans (doi:10.7554/elife.90254) are described below.

B1: LINE1-mini (parent)
chain: GGCAGAGCUCAACACAGCGUGGCAAAGUGGCUGUGGCUAGACUGCC

Variants of B1 are the subject of this data set. Nature of the data set: self-cleavage, relative activity (ratio to wild type); higher = more cleavage; in vitro, sequencing; the parent is a self-cleaving ribozyme.
U9C A14C: the self-cleavage came to 0.02.
For the variant U9C A14U, the self-cleavage stood at 0.07.
The figure for U9C A14G is 0.03; for U9C C31G it is 0.02.
Consider U9C C31U, for which the self-cleavage is 0.03.
In the case of U9C C31A, the self-cleavage was 0.02.
The figure for U9G is 0.15; for U9C it is 0.04.
The figure for U9C G33A is 0.06; for U9C G33C it is 0.03; for U9C G33U it is 0.03.
The figure for U9A U28A is 0.17; for U9A U28G it is 0.15.
On to U9A U28C, for which the self-cleavage stood at 0.1.
Consider U9C A11G, for which the self-cleavage was determined as 0.02.
The figure for U9C A11U is 0.03; for U9C A11C it is 0.02; for U9C G36A it is 0.09.
The figure for U9C G36U is 0.03; for U9C G36C it is 0.03; for U9C A26U it is 0.11.
The figure for U9C A26G is 0.05; for U9C A26C it is 0.03.
With U9C G27U, the self-cleavage came to 0.04.
The figure for U9C G27A is 0.03; for U9C G27C it is 0.03; for U9C G30C it is 0.04.
The figure for U9C G30A is 0.03; for U9C G30U it is 0.02.
Next, U9C A16C: 0.02; U9C A16U: 0.04.
Turning to U9C A16G, the self-cleavage worked out at 0.03.
On to U9A G21U, for which the self-cleavage worked out at 0.15.
The figure for U9A G21A is 0.3.
Next, U9A G21C: 0.06.
Next, U9C G44C: 0.02; U9C G44A: 0.04.
With U9C G44U, the self-cleavage was determined as 0.02.
Next, U9C G19C: 0.05.
Next, U9C G19U: 0.08; U9C G19A: 0.04; U9A U34C: 0.18.
The figure for U9A U34G is 0.08; for U9A U34A it is 0.21; for U9C C45G it is 0.02.
As for U9C C45U, the self-cleavage stood at 0.03.
Turning to U9C C45A, the self-cleavage came to 0.05.
Next, U9A G22U: 0.11; U9A G22C: 0.09; U9A G22A: 0.14.
For the variant U9C G35C, the self-cleavage stood at 0.04.
The figure for U9C G35U is 0.03.
Next, U9C G35A: 0.06.
The figure for U9A G30A is 0.18.
On to U9A G30C, for which the self-cleavage stood at 0.1.
Consider U9A G30U, for which the self-cleavage came to 0.08.
The figure for U9C U34A is 0.04.
Next, U9C U34C: 0.04.
The figure for U9C U34G is 0.03.
For U9C C10U, the self-cleavage stood at 0.04.
Next, U9C C10A: 0.03; U9C C10G: 0.03; U9A G17U: 0.13.
Next, U9A U43C: 0.14; U9A U43A: 0.2; U9A U43G: 0.28.
In the case of U9C U20C, the self-cleavage amounted to 0.02.
The figure for U9C U20A is 0.04; for U9C U20G it is 0.03.
Next, U9C G22C: 0.03; U9C G22U: 0.02.
As for U9C G22A, the self-cleavage was 0.04.
The figure for U9A G40C is 0.08.
Next, U9A G40A: 0.19; U9A G40U: 0.1.
As for U9C G40C, the self-cleavage amounted to 0.03.
Turning to U9C G40A, the self-cleavage is 0.03.
Next, U9C G40U: 0.03.
With U9C A41U, the self-cleavage came to 0.06.
In the case of U9C A41C, the self-cleavage was 0.04.
On to U9C A41G, for which the self-cleavage was 0.05.
The figure for U9G A11G is 0.02.
Next, U9G A11C: 0.02.
Next, U9C A12G: 0.04; U9C A12C: 0.04.
With U9C A12U, the self-cleavage was found to be 0.03.
The figure for U9C U38G is 0.04; for U9C U38C it is 0.07.
The figure for U9C U38A is 0.03.
The figure for U9C C42A is 0.03; for U9C C42U it is 0.04.
As for U9C C42G, the self-cleavage amounted to 0.03.
U9A G35A: the self-cleavage was 0.15.
The figure for U9A G35C is 0.08; for U9A G35U it is 0.09; for U9C C23G it is 0.03.
The figure for U9C C23U is 0.02; for U9C C23A it is 0.02.
Next, U9C C46G: 0.03.
As to U9C C46A, the self-cleavage came out at 0.03.
The figure for U9C C46U is 0.03; for U9C C15U it is 0.04.
Next, U9C C15A: 0.03.
Next, U9C C15G: 0.04.
U9A G19C: the self-cleavage turned out to be 0.06.
Next, U9A G19A: 0.15.
The figure for U9A G19U is 0.08.
Next, U9A U38C: 0.12.
In the case of U9A U38G, the self-cleavage came to 0.22.
The figure for U9A U38A is 0.08; for U9C U28A it is 0.03.
Next, U9C U28C: 0.05.
For the variant U9C U28G, the self-cleavage came to 0.04.
Next, U9A U32A: 0.11; U9A U32G: 0.19; U9A U32C: 0.13.
Consider U9A G27U, for which the self-cleavage was determined as 0.14.
On to U9A G27A, for which the self-cleavage amounted to 0.1.
The figure for U9A G27C is 0.11; for U9A G36A it is 0.34.
The figure for U9A G36C is 0.06; for U9A G36U it is 0.1.
As for U9A G44C, the self-cleavage stood at 0.07.
The figure for U9A G44U is 0.09; for U9A G44A it is 0.31; for U9C G17A it is 0.02.
The figure for U9C G17C is 0.04; for U9C G17U it is 0.04.
Next, U9A G29C: 0.05; U9A G29U: 0.15.
In the case of U9A G29A, the self-cleavage was determined as 0.2.
As for U9C U43C, the self-cleavage is 0.02.
Next, U9C U43A: 0.03; U9C U43G: 0.01.
The figure for U9C U32C is 0.04; for U9C U32A it is 0.02; for U9C U32G it is 0.03.
The figure for U9C G29U is 0.03; for U9C G29A it is 0.02.
As to U9C G29C, the self-cleavage turned out to be 0.02.
Next, U9C G21U: 0.04; U9C G21A: 0.04; U9C G21C: 0.06.
Next, U9C A39U: 0.05.
The figure for U9C A39C is 0.02.
On to U9C A39G, for which the self-cleavage was 0.02.
Next, U9C C13U: 0.03.
The figure for U9C C13G is 0.04.
The figure for U9C C13A is 0.05; for U9C C18A it is 0.03; for U9C C18U it is 0.01.
With U9C C18G, the self-cleavage worked out at 0.03.
Next, U9A U20G: 0.16.
The figure for U9A U20C is 0.12; for U9A U20A it is 0.16; for U9C C37A it is 0.02.
Consider U9C C37G, for which the self-cleavage is 0.01.
Next, U9C C37U: 0.04; U9A G33A: 0.11; U9A G33C: 0.07.
Next, U9A G33U: 0.07; U9C A24U: 0.05.
With U9C A24G, the self-cleavage was 0.07.
Next, U9C A24C: 0.02; U9C A25U: 0.04; U9C A25G: 0.04.
The figure for U9C A25C is 0.03.
